Measurements as given in IntAct's records for PubMed 18547396.

B1: Protein TIFY 7 (Arabidopsis thaliana (Mouse-ear cress)), Q8W4J8 (parent)
chain: MERDFLGLSDKQYLSNNVKHEVNDDAVEERGLSTKAAREWGKSKVFATSSFMPSSDFQEAKAFPGAYQWGSVSAANVFRRCQFGGAFQNATPLLLGGSVPLPTHPSLVPRVASSGSSPQLTIFYGGTISVFNDISPDKAQAIMLCAGNGLKGETGDSKPVREAERMYGKQIHNTAATSSSSATHTDNFSRCRDTPVAATNAMSMIESFNAAPRNMIPSVPQARKASLARFLEKRKERLMSAMPYKKMLLDLSTGESSGMNYSSTSPT
partner: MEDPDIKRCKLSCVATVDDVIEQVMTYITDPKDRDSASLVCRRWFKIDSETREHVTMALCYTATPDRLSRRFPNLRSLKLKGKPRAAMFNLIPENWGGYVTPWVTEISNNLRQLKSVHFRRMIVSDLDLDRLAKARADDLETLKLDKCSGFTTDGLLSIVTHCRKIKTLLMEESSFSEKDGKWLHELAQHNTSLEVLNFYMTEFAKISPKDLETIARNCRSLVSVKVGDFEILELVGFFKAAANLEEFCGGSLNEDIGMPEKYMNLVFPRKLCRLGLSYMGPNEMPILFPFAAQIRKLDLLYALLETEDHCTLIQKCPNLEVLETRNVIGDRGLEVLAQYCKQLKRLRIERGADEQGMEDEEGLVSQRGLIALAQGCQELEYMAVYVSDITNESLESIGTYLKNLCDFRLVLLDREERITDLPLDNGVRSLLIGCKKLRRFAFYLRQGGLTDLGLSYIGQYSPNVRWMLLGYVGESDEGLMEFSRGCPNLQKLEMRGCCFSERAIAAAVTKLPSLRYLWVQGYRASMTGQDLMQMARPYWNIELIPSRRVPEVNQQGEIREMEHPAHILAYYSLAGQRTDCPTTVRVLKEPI
B2: Protein TIFY 10A (Arabidopsis thaliana (Mouse-ear cress)), Q9LMA8 (parent)
chain: MSSSMECSEFVGSRRFTGKKPSFSQTCSRLSQYLKENGSFGDLSLGMACKPDVNGTLGNSRQPTTTMSLFPCEASNMDSMVQDVKPTNLFPRQPSFSSSSSSLPKEDVLKMTQTTRSVKPESQTAPLTIFYAGQVIVFNDFSAEKAKEVINLASKGTANSLAKNQTDIRSNIATIANQVPHPRKTTTQEPIQSSPTPLTELPIARRASLHRFLEKRKDRVTSKAPYQLCDPAKASSNPQTTGNMSWLGLAAEI
partner: B1 partner

Variants of: B1
Conditions: with coi1_arath COI1, O04197

Effect of a mutation on the interaction, disrupting interaction:
R223A
K224A
R223A;K224A

Variants of: B2
Conditions: with coi1_arath COI1, O04197

Effect of a mutation on the interaction, disrupting interaction:
R205A
R205A;R206A
R206A
